We go through four molecules from patent publication US6531286, “Homogeneous detection of a target through nucleic acid ligand-ligand beacon interaction” (Gilead Sciences, Inc.).

Series [1] deals with T1, P-selectin (Homo sapiens, UniProt P16109 P16109:42-771). The experiment in a line: competition; ligand beacon (SEQ:8); 200 nM aptamer, SHMCK buffer 1 mM MgCl2 1 mM CaCl2, 4 uM tRNA, pH 7.4, 37C; also detected in plasma; FIG. 3A lists aptamer as SEQ:12. The conditions noted are these: tags: R & D Systems. The procedure:
Open circles represent the fluorescence signal obtained when the 100 nM PDGF aptamer was first incubated with 100 nM PDGF ligand beacon before the protein was added. Closed circles indicate the signal generated when 100 nM PDGF ligand beacon was mixed with increasing concentration of the PDGF AB-dimer in the absence of the aptamer. TAQ DNA Polymerase An assay using constant concentrations of TAQ nucleic acid ligand and TAQ ligand beacon, and varying concentrations of TAQ DNA polymerase, was carried out as described above. Again, the fluorescence emission decreased with increasing amounts of the ligand Taq Polymerase. […] Then, L-selectin ligand beacon was added to a final concentration equivalent to that of the aptamer, incubated additional 10 minutes at 37° C. and fluorescence was measured. […] The fluorescence signal was then measured as described above. […]
P-selectin aptamer (200 nM) was mixed with increasing concentration of human P-selectin in SHMCK buffer [20 mM HEPES, 120 mM NaCl, 5 mM KCl, 1 mM MgCl_2, 1 mM CaCl_2, 4µM tRNA, (pH 7.4)] and incubated for 10 minutes at 37° C. Then, P-selectin ligand beacon was added to a final concentration of 200 nM, incubated for additional 10 minutes at 37° C. and fluorescence was measured. […]

In series [2] the target is T2, L-selectin (Homo sapiens, UniProt P14151 P14151:39-332).
T2 sequence: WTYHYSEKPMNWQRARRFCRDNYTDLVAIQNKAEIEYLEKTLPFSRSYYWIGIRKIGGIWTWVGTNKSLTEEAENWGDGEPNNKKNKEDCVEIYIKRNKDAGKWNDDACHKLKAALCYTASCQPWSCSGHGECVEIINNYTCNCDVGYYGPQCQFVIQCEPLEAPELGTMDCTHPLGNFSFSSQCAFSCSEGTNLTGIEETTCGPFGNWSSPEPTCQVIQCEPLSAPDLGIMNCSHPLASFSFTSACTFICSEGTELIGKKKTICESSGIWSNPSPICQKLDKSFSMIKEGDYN
The experiment in a line: competition; specificity control, little or no fluorescence change; 200 nM aptamer, SHMCK, 4 uM tRNA, 37C. Particulars: tags: R & D Systems. On the procedure: (§1) Specifically, L-Selectin nucleic acid ligand (200 nM) was mixed with increasing concentrations of P-Selectin in SHMCK buffer containing 4 µM tRNA. The mixture was incubated at 37° C. for 15 minutes. Then 220 nM L-Selectin ligand beacon was added and the mixture was incubated an additional 10 minutes at the same temperature and fluorescence was measured (FIG. 8C; (•)). P-Selectin nucleic acid ligand (200 nM) was mixed with increasing concentrations of L-Selectin in SHMCK buffer containing 4 µM tRNA at 37° C. for 15 minutes. Then 220 nM P-Selectin ligand beacon was added, incubated for an additional 10 minutes at the same temperature and fluorescence was measured (FIG. 8C; (○)).

For series [3], the target named is T3, PDGF-AB (platelet-derived growth factor AB dimer) (Homo sapiens, UniProt P04085;P01127 P04085:87-211,P01127:82-190). Briefly: competition; specificity control, no concentration-dependent signal reduction; 100 nM aptamer, PBSM, 4 uM tRNA, 37C. The conditions noted are these: tags: R & D Systems; chain copies: heterodimer A+B (stated); predicted stem-loop. On the procedure: In the example shown in FIG. 4C, TAQ-nucleic acid ligand (100 nM) was mixed with increasing concentrations of PDGF in PBSM buffer containing 4 μM tRNA at 37° C. for 10 minutes. Then 110 nM TAQ-ligand beacon was added, incubated for an additional 10 minutes at the same temperature and fluorescence was measured.

For another series, the target named is Taq DNA polymerase (Thermus aquaticus, UniProt P19821 P19821:1-832). Briefly: competition; ligand beacon (SEQ:4) fluorescence decreases with protein; PBSM buffer, 4 uM tRNA, 37C; FIG. 3A lists aptamer as SEQ:9. The conditions noted are these: tags: Roche Molecular Systems; predicted stem-loop. On the procedure: (§2) Open circles represent the fluorescence signal obtained when the 100 nM PDGF aptamer was first incubated with 100 nM PDGF ligand beacon before the protein was added. Closed circles indicate the signal generated when 100 nM PDGF ligand beacon was mixed with increasing concentration of the PDGF AB-dimer in the absence of the aptamer. TAQ DNA Polymerase An assay using constant concentrations of TAQ nucleic acid ligand and TAQ ligand beacon, and varying concentrations of TAQ DNA polymerase, was carried out as described above. Again, the fluorescence emission decreased with increasing amounts of the ligand Taq Polymerase. Human L-Selectin A fixed concentration of L-selectin aptamer was mixed with increasing concentration of human L-selectin in SHMCK buffer [20 mM HEPES, 120 mM NaCl, 5 mM KCl, 1 mM MgCl_2, 1 mM CaCl_2, 4 µM tRNA, (pH 7.4)] and incubated for 10 minutes at 37° C. Then, L-selectin ligand beacon was added to a final concentration equivalent to that of the aptamer, incubated additional 10 minutes at 37° C. and fluorescence was measured. The results are depicted in FIGS. 7A and B. It can be seen that the dynamic range of the assay can be easily varied by changing the concentration of the nucleic acid ligand/ligand beacon pair. […] The fluorescence signal was then measured as described above. […]

Series [4] addresses T3, PDGF-AB (platelet-derived growth factor …). Briefly: competition; ligand beacon (SEQ:2) fluorescence decreases with protein; 160 nM aptamer, PBSM buffer 1 mM MgCl2, 4 uM tRNA, pH 7.4, 37C; also detected in plasma; FIG. 3A lists aptamer as SEQ:10. Particulars: tags: R & D Systems; chain copies: heterodimer A+B (stated); predicted 3-way junction. On the procedure: Example 5 Protein Detection Using Ligand Beacon Assays PDGF AB-Dimer The PDGF ligand beacon was used in an assay in which 160 nM PDGF nucleic acid ligand (SEQ ID NO:1) was mixed with an increasing concentration of PDGF AB-dimer in PBSM buffer [10.1 mM Na_2HPO_4, 1.8 mM KH_2PO_4, 137 mM NaCl, 2.7 mM KCl, 1 mM MgCl_2, 4 μM tRNA (pH 7.4)] for 10 minutes at 37° C. Then, ligand beacon (SEQ ID NO:2) was added to a final concentration of 160 nM and the mixture was incubated for 10 minutes at 37° C. A measurement of fluorescein emission at 530 nm was made for each concentration of PDGF using 488 nm monochromatic laser light for excitation in a 96 well format Vistra Fluorimager SI. The average value of fluorescence signals derived from duplicates was plotted against the corresponding log concentration of the concentration PDGF AB-dimer in nanomoles.

Series [5] has as its target T2, L-selectin. The experiment in a line: competition; ligand beacon (SEQ:6); 200 or 800 nM aptamer, SHMCK buffer 1 mM MgCl2 1 mM CaCl2, 4 uM tRNA, pH 7.4, 37C; also detected in plasma. Particulars: tags: R & D Systems. The procedure:
as §2

The target in series [6] is T1, P-selectin. Briefly: competition; specificity control, little or no fluorescence change; 200 nM aptamer, SHMCK, 4 uM tRNA, 37C. The conditions noted are these: tags: R & D Systems. The procedure: as §1

T1 sequence (P16109 42-771, one chain of several): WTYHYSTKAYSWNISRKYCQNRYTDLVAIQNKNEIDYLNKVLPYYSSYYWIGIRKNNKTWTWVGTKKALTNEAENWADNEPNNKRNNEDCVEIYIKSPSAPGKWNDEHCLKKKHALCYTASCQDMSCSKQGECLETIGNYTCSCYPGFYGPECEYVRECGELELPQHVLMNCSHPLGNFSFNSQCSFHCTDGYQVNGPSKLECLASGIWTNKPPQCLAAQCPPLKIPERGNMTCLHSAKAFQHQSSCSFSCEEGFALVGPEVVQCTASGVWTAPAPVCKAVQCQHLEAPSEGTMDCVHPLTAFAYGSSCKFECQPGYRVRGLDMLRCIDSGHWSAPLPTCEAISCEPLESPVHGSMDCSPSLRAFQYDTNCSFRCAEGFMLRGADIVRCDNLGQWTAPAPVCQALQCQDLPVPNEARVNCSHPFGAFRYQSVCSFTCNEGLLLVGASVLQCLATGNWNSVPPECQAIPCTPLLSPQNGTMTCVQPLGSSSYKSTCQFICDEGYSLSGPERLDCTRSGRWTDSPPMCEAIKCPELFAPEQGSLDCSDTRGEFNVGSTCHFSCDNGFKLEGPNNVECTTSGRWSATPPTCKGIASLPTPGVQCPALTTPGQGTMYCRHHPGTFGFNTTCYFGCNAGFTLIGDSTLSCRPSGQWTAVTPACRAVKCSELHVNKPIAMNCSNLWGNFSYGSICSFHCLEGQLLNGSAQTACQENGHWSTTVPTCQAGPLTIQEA
T3 sequence (P01127 82-190, chain 2 of 2, other chains not shown): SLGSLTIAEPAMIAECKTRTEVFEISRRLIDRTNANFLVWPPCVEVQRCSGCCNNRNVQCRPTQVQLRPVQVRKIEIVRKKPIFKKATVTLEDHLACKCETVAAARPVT
Sequence of Taq DNA polymerase (P19821 whole entry, one chain of several): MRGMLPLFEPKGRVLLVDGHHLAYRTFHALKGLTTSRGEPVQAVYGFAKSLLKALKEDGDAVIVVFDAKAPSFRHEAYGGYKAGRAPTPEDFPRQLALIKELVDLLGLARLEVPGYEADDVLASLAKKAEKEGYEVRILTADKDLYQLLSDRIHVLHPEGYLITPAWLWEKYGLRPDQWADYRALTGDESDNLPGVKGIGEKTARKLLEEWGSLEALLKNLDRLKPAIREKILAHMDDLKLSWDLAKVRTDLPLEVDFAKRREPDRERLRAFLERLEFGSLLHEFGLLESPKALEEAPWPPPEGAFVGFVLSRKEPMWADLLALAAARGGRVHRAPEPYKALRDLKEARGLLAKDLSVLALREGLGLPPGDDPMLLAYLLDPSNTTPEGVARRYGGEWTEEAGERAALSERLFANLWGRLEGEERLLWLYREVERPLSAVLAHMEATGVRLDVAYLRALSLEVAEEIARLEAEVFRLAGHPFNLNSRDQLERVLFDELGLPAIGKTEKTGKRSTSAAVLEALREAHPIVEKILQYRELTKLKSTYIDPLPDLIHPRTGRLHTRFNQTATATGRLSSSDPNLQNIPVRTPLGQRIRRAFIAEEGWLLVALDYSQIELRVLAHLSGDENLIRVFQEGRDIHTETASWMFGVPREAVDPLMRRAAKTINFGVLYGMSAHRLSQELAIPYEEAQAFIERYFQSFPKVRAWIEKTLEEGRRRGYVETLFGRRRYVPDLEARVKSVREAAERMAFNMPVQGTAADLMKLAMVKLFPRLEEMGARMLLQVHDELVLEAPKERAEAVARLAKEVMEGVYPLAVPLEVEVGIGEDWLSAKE

With CUCAACGAGCCAGGAACAUCGAGGUCAGCAAACGCGAG (ssRNA, 2'-F at all pyrimidines) [P-selectin aptamer], the figures for the binding result in the series with P-selectin [1] and with L-selectin [2] were “binds” and “no binding”, respectively.

B1: Taq aptamer (ssDNA)
DNA: TGGCGGAGCGATCATCTCAGAGCATTCTTAGCGTTTTGTTCTTGTGTATGA
As to B1, the binding result in series [3] is reported as “no binding”; with Taq DNA polymerase it was “binds”.

With TGGGAGGGCGCGTTCTTCGTGGTTACTTTTAGTCCCGT (ssDNA) [PDGF aptamer], the binding result in series [4] was “binds”.

With TAGCCAAGGTAACCAGTACAAGGTGCTAAACGTAATGGCTTCGGCTTAC (ssDNA) [L-selectin aptamer], the binding result with L-selectin [5] is given as “binds”; with P-selectin [6] it was “no binding”.
